Results from patent US20180044653A1, “Mutant Yeast Strain Capable of Degrading Cellobiose” (Institut National de la Recherche Agronomique, priority 2015, published 2018).

Experiments:
[1] = substrate: OC[C@H]1O[C@@H](O[C@H]2[C@H](O)[C@@H](O)[C@H](O[C@H]3[C@H](O)[C@@H](O)[C@H](O[C@H]4[C@H](O)[C@@H](O)[C@H](O[C@H]5[C@H](O)[C@@H](O)C(O)O[C@@H]5CO)O[C@@H]4CO)O[C@@H]3CO)O[C@@H]2CO)[C@H](O)[C@@H](O)[C@@H]1O; assay: Enzyme kinetics on glycoside substrates, released glucose, Michaelis-Menten (Bgl2); format: biochemical, Yarrowia lipolytica; conditions: other: apparent, 0.13 nM Bgl2, mean of three experiments, SD below 10%
[2] = substrate: OC[C@H]1O[C@@H](O[C@H]2[C@H](O)[C@@H](O)C(O)O[C@@H]2CO)[C@H](O)[C@@H](O)[C@@H]1O; assay: as above; format: biochemical, Yarrowia lipolytica; conditions: other: apparent, 0.13 nM Bgl2, mean of three experiments, SD below 10%
[3] = substrate: CCCCCCCCO[C@@H]1O[C@H](CO)[C@@H](O)[C@H](O)[C@H]1O; assay: as above; format: biochemical, Yarrowia lipolytica; conditions: other: apparent, 0.13 nM Bgl2, mean of three experiments, SD below 10%
[4] = substrate: OC[C@H]1O[C@@H](O[C@H]2[C@H](O)[C@@H](O)[C@H](O[C@H]3[C@H](O)[C@@H](O)[C@H](O[C@H]4[C@H](O)[C@@H](O)C(O)O[C@@H]4CO)O[C@@H]3CO)O[C@@H]2CO)[C@H](O)[C@@H](O)[C@@H]1O; assay: purified protein, by the assay type; conditions: other: apparent; 0.13 nM Bgl2; released glucose; mean of three experiments, SD below 10%
[5] = substrate: OC[C@H]1O[C@@H](OC[C@H]2OC(O)[C@H](O)[C@@H](O)[C@@H]2O)[C@H](O)[C@@H](O)[C@@H]1O; assay: purified protein, by the assay type; conditions: other: apparent; 0.13 nM Bgl2; released glucose; mean of three experiments, SD below 10%
[6] = substrate: OC[C@H]1O[C@@H](O[C@H]2[C@H](O)[C@@H](O)[C@H](O[C@H]3[C@H](O)[C@@H](O)[C@H](O[C@H]4[C@H](O)[C@@H](O)[C@H](O[C@H]5[C@H](O)[C@@H](O)[C@H](O[C@H]6[C@H](O)[C@@H](O)C(O)O[C@@H]6CO)O[C@@H]5CO)O[C@@H]4CO)O[C@@H]3CO)O[C@@H]2CO)[C@H](O)[C@@H](O)[C@@H]1O; assay: purified protein, by the assay type; conditions: other: apparent; 0.13 nM Bgl2; released glucose; mean of three experiments, SD below 10%
[7] = substrate: OC[C@H]1O[C@@H](O[C@H]2C(O)O[C@H](CO)[C@@H](O)[C@@H]2O)[C@H](O)[C@@H](O)[C@@H]1O; assay: purified protein, by the assay type; conditions: other: apparent; 0.13 nM Bgl2; released glucose; mean of three experiments, SD below 10%
[8] = substrate: OC[C@H]1O[C@@H](O[C@H]2[C@H](O)[C@@H](CO)OC(O)[C@@H]2O)[C@H](O)[C@@H](O)[C@@H]1O; assay: purified protein, by the assay type; conditions: other: apparent; 0.13 nM Bgl2; released glucose; mean of three experiments, SD below 10%
[9] = substrate: OC[C@H]1O[C@@H](O[C@H]2[C@H](O)[C@@H](O)[C@H](O[C@H]3[C@H](O)[C@@H](O)C(O)O[C@@H]3CO)O[C@@H]2CO)[C@H](O)[C@@H](O)[C@@H]1O; assay: purified protein, by the assay type; conditions: other: apparent; 0.13 nM Bgl2; released glucose; mean of three experiments, SD below 10%
[10] = substrate: OC[C@H]1O[C@@H](O[C@H]2[C@H](O)[C@@H](O)[C@H](O[C@H]3[C@H](O)[C@@H](O)[C@H](O[C@H]4[C@H](O)[C@@H](O)[C@H](O[C@H]5[C@H](O)[C@@H](O)C(O)O[C@@H]5CO)O[C@@H]4CO)O[C@@H]3CO)O[C@@H]2CO)[C@H](O)[C@@H](O)[C@@H]1O; assay: Enzyme kinetics on glycoside substrates, released glucose, Michaelis-Menten (Bgl1-His6); format: biochemical, Yarrowia lipolytica; conditions: other: apparent, 0.120 nM Bgl1-His6, mean of three experiments, SD below 10%, pH 7.4, 28.0 °C
Protocol: (§1) Y. lipolytica JMY1212 overproducing Bgl1-His6 and Bgl2 were grown in 200 mL YTD medium at 130 rpm, 28° C. for 36 h before centrifugation at 8,000×g for 5 min. For purification of Bgl1-His6, the cell pellet was washed, suspended in 50 mL phosphate buffer (50 mM, pH 7.4) and homogenized over a 3-min period using a MP FastPrep-24 Instrument. After centrifugation (8,000×g for 5 min at 4° C.), the supernatant was applied to 2 mL of TALON Metal Affinity Resin (Clontech Takara-Bio, Kyoto, Japan) and protein was eluted using imidazole buffer according to the manufacturer's instructions.
(§2) When using aryl-substrates, the standard assay method was employed, simply replacing pNPGlc by another substrate as appropriate. For oligosaccharides, the release of glucose was quantified using an enzyme kit (D-Fructose/D-Glucose Assay Kit, liquid stable, Megazyme). […] Initial rates were fitted to the Michaelis-Menten kinetic equation using a nonlinear regression (SigmaPlot 10) to extract the apparent KM and kcat (Segel, 1993).

[11] = substrate: OC[C@H]1O[C@@H](O[C@H]2[C@H](O)[C@@H](O)[C@H](O[C@H]3[C@H](O)[C@@H](O)[C@H](O[C@H]4[C@H](O)[C@@H](O)C(O)O[C@@H]4CO)O[C@@H]3CO)O[C@@H]2CO)[C@H](O)[C@@H](O)[C@@H]1O; assay: as above; format: biochemical, Yarrowia lipolytica; conditions: other: apparent, 0.120 nM Bgl1-His6, mean of three experiments, SD below 10%, pH 7.4, 28.0 °C
Protocol: as §1, §2

[12] = substrate: OC[C@H]1O[C@@H](OC[C@H]2OC(O)[C@H](O)[C@@H](O)[C@@H]2O)[C@H](O)[C@@H](O)[C@@H]1O; assay: as above; format: biochemical, Yarrowia lipolytica; conditions: other: apparent, 0.120 nM Bgl1-His6, mean of three experiments, SD below 10%, pH 7.4, 28.0 °C
Protocol: as §1, §2

[13] = substrate: OC[C@H]1O[C@@H](O[C@H]2[C@H](O)[C@@H](O)[C@H](O[C@H]3[C@H](O)[C@@H](O)[C@H](O[C@H]4[C@H](O)[C@@H](O)[C@H](O[C@H]5[C@H](O)[C@@H](O)[C@H](O[C@H]6[C@H](O)[C@@H](O)C(O)O[C@@H]6CO)O[C@@H]5CO)O[C@@H]4CO)O[C@@H]3CO)O[C@@H]2CO)[C@H](O)[C@@H](O)[C@@H]1O; assay: as above; format: biochemical, Yarrowia lipolytica; conditions: other: apparent, 0.120 nM Bgl1-His6, mean of three experiments, SD below 10%, pH 7.4, 28.0 °C
Protocol: as §1, §2

[14] = substrate: OC[C@H]1O[C@@H](O[C@H]2[C@H](O)[C@@H](O)C(O)O[C@@H]2CO)[C@H](O)[C@@H](O)[C@@H]1O; assay: as above; format: biochemical, Yarrowia lipolytica; conditions: other: apparent, 0.120 nM Bgl1-His6, mean of three experiments, SD below 10%, pH 7.4, 28.0 °C
Protocol: as §1, §2

[15] = substrate: CCCCCCCCO[C@@H]1O[C@H](CO)[C@@H](O)[C@H](O)[C@H]1O; assay: as above; format: biochemical, Yarrowia lipolytica; conditions: other: apparent, 0.120 nM Bgl1-His6, mean of three experiments, SD below 10%, pH 7.4, 28.0 °C
Protocol: as §1, §2

[16] = substrate: OC[C@H]1O[C@@H](O[C@H]2C(O)O[C@H](CO)[C@@H](O)[C@@H]2O)[C@H](O)[C@@H](O)[C@@H]1O; assay: as above; format: biochemical, Yarrowia lipolytica; conditions: other: apparent, 0.120 nM Bgl1-His6, mean of three experiments, SD below 10%, pH 7.4, 28.0 °C
Protocol: as §1, §2

[17] = substrate: OC[C@H]1O[C@@H](O[C@H]2[C@H](O)[C@@H](CO)OC(O)[C@@H]2O)[C@H](O)[C@@H](O)[C@@H]1O; assay: as above; format: biochemical, Yarrowia lipolytica; conditions: other: apparent, 0.120 nM Bgl1-His6, mean of three experiments, SD below 10%, pH 7.4, 28.0 °C
Protocol: as §1, §2

[18] = substrate: OC[C@H]1O[C@@H](O[C@H]2[C@H](O)[C@@H](O)[C@H](O[C@H]3[C@H](O)[C@@H](O)C(O)O[C@@H]3CO)O[C@@H]2CO)[C@H](O)[C@@H](O)[C@@H]1O; assay: as above; format: biochemical, Yarrowia lipolytica; conditions: other: apparent, 0.120 nM Bgl1-His6, mean of three experiments, SD below 10%, pH 7.4, 28.0 °C
Protocol: as §1, §2

B1: Yarrowia lipolytica β-glucosidase Bgl2 (YALI_BGL2, YALI0B14289g, SEQ ID NO: 6; mature SEQ ID NO: 2), native (Yarrowia lipolytica CLIB122) (protein)
chain: DPFSDKDAYKHSPPYYPAPEIGRVPTDLRWRAALKVAQGMVANMTLLEKVNITTGTGWEMGPCVGNTGTVERLGIKSLCLQDGPLGIRFADLITTFPAGITIASTFSRQLVRERGAAMGRENRRKGVDITLSPVVGPLGRHANGGRIWEGFSADPYLAGKLAAEAVTGIQGQNVMAVVKHMVGNEQEHFRQLGEWQGFGFKDLKQPLSSNIDDRTLNEAYLWPFADAVRANVGSVMCSYQQINGSQGCQNAHILNGKLKEEMGFQGFVMSDWLAQRSGVASVLAGLDMSMPGDGLVWADGVPLMGYELTRSVLNGTIDESRVDDMVTRILTPILYLSITPTDPNFSSWTNDTTSYKYYGAKAGGNVTVNRHIDVRDQYTTKAALDGANAALVLLKNEKKTLPLNPTNIGNLNIFGIGSKTGPLGAVCGENMQCSDGALIEGWGSGSVYPTDYQSPYDAIKERASKDNITIGGTTQSWGNLSNVEILSAAADASVVFVLSDSGESTGIVDGNIGDRNNLTLWHNGDEVVKAVASKNPNTIVVVTTVGPVNLEKWIDNPNVTAVLLTGPAGDFGGRAAASILFGDIAPSGKLPFTIAKNDTDYIPLTTKIPEDGLPQDYFTEGTLLDYKRFDENQVTPRFEFGYGLSYSNITVENLEARYAFPSIPEFLPTPFAPSNPNKPKNAFTPHANESVFPSDIDPLNKYVYPYLNDTSEIFSNETHYPYPEGYSSEQSNSTNINGGAVGGNPALWLSAVYIVHSVSNYGPYDTGVVTQMYIAFPQDNDDLKTAPRQLRGFERSELKVGERQGILYDVQWRDLAVWDVKLQSWRVQRGEYKVYVGHSSRDFVLTTSFTLK
Km [1]: 2240 µM
kcat [1]: 27.5 s⁻¹
kcat/Km [1]: 12300 M⁻¹ s⁻¹
Km [2]: 790 µM
kcat [2]: 5.1 s⁻¹
kcat/Km [2]: 6500 M⁻¹ s⁻¹
Km [3]: 1300 µM
kcat [3]: 111.1 s⁻¹
kcat/Km [3]: 85200 M⁻¹ s⁻¹
Km [4]: 1860 µM
kcat [4]: 20.6 s⁻¹
kcat/Km [4]: 11000 M⁻¹ s⁻¹
Km [5]: 1840 µM
kcat [5]: 186.5 s⁻¹
kcat/Km [5]: 101000 M⁻¹ s⁻¹
Km [6]: 2370 µM
kcat [6]: 30.5 s⁻¹
kcat/Km [6]: 12900 M⁻¹ s⁻¹
Km [7]: 2400 µM
kcat [7]: 41.2 s⁻¹
kcat/Km [7]: 17200 M⁻¹ s⁻¹
Km [8]: 890 µM
kcat [8]: 211.1 s⁻¹
kcat/Km [8]: 237000 M⁻¹ s⁻¹
Km [9]: 990 µM
kcat [9]: 9.5 s⁻¹
kcat/Km [9]: 9600 M⁻¹ s⁻¹

B2: Yarrowia lipolytica β-glucosidase Bgl1-His6 (YALI_BGL1, YALI0F16027g, SEQ ID NO: 4; mature SEQ ID NO: 1), His6-tagged (Yarrowia lipolytica CLIB122) (protein)
chain: SPDWYPTPEIGSITSDWADALGESMDILAQLTLPEKVNITTGTGWRGGQCVGNTGAVPRLGIKGLCLQDGPLGVRFADFVNVFPCQNAMAATFDRILVHQRGTAIGRQSRLKGVDVHLGPVVGPLGRHATGGRNWEGFSPDPYLSGKLAFEAILGVQEEGVLATIKHFIGNEQEHYRRAEEWRDGFGFKDLKDAVSSNIEDRALHELYMWPFADAVRANVGSVMCSYNYVNGTQACQNSDLLNGKLKSELGFQGFVMSDWFAQGSGVSNALAGMDMSMPGNDVDELETVFWGEQLTRMVANGTLPEARLDDMVLRILTPLIYFGIDDRTPNFSSFVDTTVGSPHPAAKHSKKVKDVITNYHLDVRDQFAANVALDSARGAVVLLFNDGILPLKNISAIGVFGVGSRLGPNGAVCGENMQCSDGALIEGWGSGTAYPTEYESPYEALHKKASLLEVSVTGTTESWDMRLPLELAGDTDVNIVYVLANSGESTANVDKNLGDRRNVSLWHNGDELINTVASQGQTVVVVTTVGQVDMTAWLNHPNISAVLLTAPAGDYGGKAIADVLFGEVNPSGKLPYTIAANTSDYIPIVTKIPRDGAPQSDFVEGIYLDYKWYDKFERTPLYEFGYGLSYTTYSFSNLHLDVKEISEFLPPRPVPVQVTKPKMTNIDIEDLYVPNDFKMIDGLVYPWILNASAPLADSQTQFPFANGAGHVSDASGGVGGHPWLWSNAVTVTHNTTNCGDVAGRVVSQLYVAFPETLIDSPPVQLRGFDKSKLLNPGESQMTEYNLNWRDLAIWDVELQSWRVQRGEYSVYIGHSSREFELCETFTL
Km [10]: 2180 µM
kcat [10]: 29.5 s⁻¹
kcat/Km [10]: 13500 M⁻¹ s⁻¹
Km [11]: 1890 µM
kcat [11]: 30.9 s⁻¹
kcat/Km [11]: 16300 M⁻¹ s⁻¹
Km [12]: 1160 µM
kcat [12]: 43.6 s⁻¹
kcat/Km [12]: 37600 M⁻¹ s⁻¹
Km [13]: 3010 µM
kcat [13]: 31.5 s⁻¹
kcat/Km [13]: 10500 M⁻¹ s⁻¹
Km [14]: 260 µM
kcat [14]: 21.1 s⁻¹
kcat/Km [14]: 81100 M⁻¹ s⁻¹
Km [15]: 860 µM
kcat [15]: 32.8 s⁻¹
kcat/Km [15]: 38100 M⁻¹ s⁻¹
Km [16]: 2250 µM
kcat [16]: 28.4 s⁻¹
kcat/Km [16]: 14800 M⁻¹ s⁻¹
Km [17]: 680 µM
kcat [17]: 75.6 s⁻¹
kcat/Km [17]: 111000 M⁻¹ s⁻¹
Km [18]: 430 µM
kcat [18]: 20.5 s⁻¹
kcat/Km [18]: 47700 M⁻¹ s⁻¹
